Measurements from publication doi:10.1101/2025.05.20.655083.

Biological target: BSB PyV-LTA;mNLSn peptide (Black Sea Bass polyomavirus)
Experiment: fluorescence polarisation

Question: “mouse importin α2 ΔIBB (from UniProt P52293 70-529) (domain or fragment)” was tested. Which fold decrease of binding affinity against BSB PyV-LTA;NLS did it give?
Answer: 10 times
